Results on 2 molecules are retold here after PMC10988696, “FLIM‐FRET‐based analysis of S100A11/annexin interactions in living cells” (FEBS Open Bio, 2024).

Read-outs that look alike come from different tables or passages of the source.

Holding throughout (assay): FRET or BRET; FLIM-FRET (EGFP donor lifetime, mCherry acceptor) in living U2OS cells co-transfected with both constructs, imaged in PBS 42-45 h after transfection, normal cytosolic calcium; E = 1 - tauDA/tauD from amplitude-weighted mean lifetimes
One experiment concerns the target T1, EGFP-ANXA2 (human, UniProt P07355 1-339).
T1 construct: human annexin A2 (ANXA2) with the fluorescent protein tag in the altered orientation (EGFP-ANXA2); The cloning of this orientation is not described in the methods; source: U2OS or HEK293T cells, transfected (calcium phosphate), in living cells; not shown: EGFP, N-terminal, kept

For the next experiment, the target named is T2, ANXA2-EGFP (human, UniProt P07355 1-339).
T2 construct: human annexin A2 (ANXA2); EGFP is the FRET donor; also called annexin A2; source: U2OS cells, transfected (calcium phosphate), in living cells; not shown: EGFP, C-terminal, kept
T2 sequence (P07355 whole entry): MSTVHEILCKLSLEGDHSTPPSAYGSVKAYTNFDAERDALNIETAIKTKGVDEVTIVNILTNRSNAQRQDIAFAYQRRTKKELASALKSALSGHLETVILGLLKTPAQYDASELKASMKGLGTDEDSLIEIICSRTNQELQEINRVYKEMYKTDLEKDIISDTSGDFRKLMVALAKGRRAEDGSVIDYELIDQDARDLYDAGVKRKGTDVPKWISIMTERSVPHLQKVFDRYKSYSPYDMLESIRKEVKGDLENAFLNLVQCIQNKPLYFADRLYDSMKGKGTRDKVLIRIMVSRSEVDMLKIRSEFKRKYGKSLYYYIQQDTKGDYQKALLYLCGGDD
The note with it: partners not purified.

In another experiment the target is T3, ANXA4-EGFP (human, UniProt P09525 1-319).
T3 construct: human annexin A4, PCR amplified from A431 cDNA; cloned in pEGFP-N1 (HindIII, BamHI); also called annexin A4; source: U2OS cells, transfected (calcium phosphate), in living cells; not shown: EGFP, C-terminal, kept
T3 sequence (looked up): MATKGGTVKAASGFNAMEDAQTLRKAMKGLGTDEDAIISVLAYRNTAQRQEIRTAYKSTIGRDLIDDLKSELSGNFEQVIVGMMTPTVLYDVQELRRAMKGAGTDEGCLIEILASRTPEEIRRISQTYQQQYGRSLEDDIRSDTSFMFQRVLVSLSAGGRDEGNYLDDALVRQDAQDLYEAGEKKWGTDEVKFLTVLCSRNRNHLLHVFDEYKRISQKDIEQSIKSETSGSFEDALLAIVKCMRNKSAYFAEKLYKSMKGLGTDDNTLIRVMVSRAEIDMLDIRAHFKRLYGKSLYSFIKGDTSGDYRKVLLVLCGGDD
The note with it: partners not purified.

In another experiment the target is T4, AnxA6-EGFP (rat, UniProt P48037 1-673).
T4 construct: rat annexin A6; plasmid provided by C; End of the tag read from the label AnxA6-EGFP; also called rat annexin A6; source: U2OS cells, transfected (calcium phosphate), in living cells; not shown: EGFP, C-terminal, kept
T4 sequence (looked up): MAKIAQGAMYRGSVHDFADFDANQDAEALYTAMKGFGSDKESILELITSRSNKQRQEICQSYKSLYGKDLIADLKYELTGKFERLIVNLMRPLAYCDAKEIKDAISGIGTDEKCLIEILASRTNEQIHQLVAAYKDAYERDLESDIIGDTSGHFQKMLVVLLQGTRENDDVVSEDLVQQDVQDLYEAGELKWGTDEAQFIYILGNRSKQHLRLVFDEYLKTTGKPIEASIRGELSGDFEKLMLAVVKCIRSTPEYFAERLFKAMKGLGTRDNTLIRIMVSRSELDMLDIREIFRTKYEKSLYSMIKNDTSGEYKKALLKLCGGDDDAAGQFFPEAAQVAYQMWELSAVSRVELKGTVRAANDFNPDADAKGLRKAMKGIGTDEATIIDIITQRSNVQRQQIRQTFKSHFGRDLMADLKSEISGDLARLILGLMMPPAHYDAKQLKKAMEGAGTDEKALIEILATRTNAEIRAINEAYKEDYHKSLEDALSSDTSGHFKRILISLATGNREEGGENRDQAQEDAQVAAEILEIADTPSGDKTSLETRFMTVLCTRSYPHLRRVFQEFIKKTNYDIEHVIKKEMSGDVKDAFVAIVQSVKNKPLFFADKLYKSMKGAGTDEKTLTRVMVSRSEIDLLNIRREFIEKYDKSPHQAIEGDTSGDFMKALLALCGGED
Particulars: partners not purified.

The next experiment has as its target T5, ANXA1-EGFP (human, UniProt P04083 1-346).
T5 construct: human annexin A1, PCR amplified from A431 cDNA; cloned in pEGFP-N1 (XhoI, BamHI); End of the tag read from the label ANXA1-EGFP and the vector pEGFP-N1; also called annexin A1; source: U2OS cells, transfected (calcium phosphate), in living cells; not shown: EGFP, C-terminal, kept
T5 sequence (looked up): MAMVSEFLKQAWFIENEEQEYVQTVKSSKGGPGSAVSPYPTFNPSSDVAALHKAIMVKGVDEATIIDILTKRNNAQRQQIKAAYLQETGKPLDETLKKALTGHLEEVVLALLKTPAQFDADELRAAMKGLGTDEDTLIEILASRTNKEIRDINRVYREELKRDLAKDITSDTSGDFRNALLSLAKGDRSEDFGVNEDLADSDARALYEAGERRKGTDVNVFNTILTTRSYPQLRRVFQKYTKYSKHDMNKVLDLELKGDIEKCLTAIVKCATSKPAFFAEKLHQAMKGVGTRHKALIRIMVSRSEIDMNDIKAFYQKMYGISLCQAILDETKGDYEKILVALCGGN
The note with it: partners not purified.

T1 sequence (P07355 whole entry): as the sequence (P07355 whole entry) above

As for “S100A11ΔCa-mCherry (from UniProt P31949 1-105) (natural protein)”, the FRET efficiency (E) with EGFP-ANXA2 turned out to be 3.7%.

B1: S100A11-mCherry (natural protein, human, UniProt P31949 1-105, looked up)
chain: MAKISSPTETERCIESLIAVFQKYAGKDGYNYTLSKTEFLSFMNTELAAFTKNQKDPGVLDRMMKKLDTNSDGQLDFSEFLNLIGGLAMACHDSFLKAVPSQKRT
notes: human S100A11 wild type; cloned in pmCherry-N1 (EcoRI, BamHI); End of the tag read from the label S100A11-mCherry and the vector pmCherry-N1; also called S100A11wt; wild-type S100A11-mCherry; source: U2OS or HEK293T cells, transfected (calcium phosphate), in living cells; not shown: mCherry, C-terminal, kept
B1: the “FRET efficiency (E)” value was 7.5% with ANXA2-EGFP; about 5% in the experiment with ANXA4-EGFP; about 6% with AnxA6-EGFP; 5.3% in the experiment with ANXA1-EGFP; about 9% with EGFP-ANXA2 (partners not purified).
